Source: the Immune Epitope Database (IEDB)
pIC50, pKd: −log10 of the molar value.

Assays:
HLA-A*01:01 = test: IEDB peptide-MHC binding, purified MHC/direct/fluorescence; filed as Kd, often an IC50 or EC50 that approximates it; ≥ and ≤ were set here for values at or beyond the usual limits of such assays; details: source organism: Reston ebolavirus - Reston
HLA-A*03:01 = test: as above
HLA-A*11:01 [1] = test: as above
HLA-A*29:02 = test: as above; details: source organism: Reston ebolavirus - Reston
HLA-A*31:01 [2] = test: as above; details: source organism: Reston ebolavirus - Reston
HLA-B*08:01 = test: as above; details: source organism: Reston ebolavirus - Reston
HLA-B*15:01 [3] = test: as above; details: source organism: Reston ebolavirus - Reston
HLA-B*18:01 [4] = test: as above; details: source organism: Reston ebolavirus - Reston
HLA-B*27:05 = test: as above; details: source organism: Reston ebolavirus - Reston
HLA-B*44:02 = test: as above; details: source organism: Reston ebolavirus - Reston
HLA-B*46:01 [5] = test: as above; details: source organism: Reston ebolavirus - Reston
HLA-B*48:01 = test: as above; details: source organism: Reston ebolavirus - Reston
HLA-B*57:01 [6] = test: as above; details: source organism: Reston ebolavirus - Reston
HLA-B*58:01 = test: as above; details: source organism: Reston ebolavirus - Reston
HLA-A*02:01 [7] = test: IEDB peptide-MHC binding, purified MHC/competitive/fluorescence; filed as Kd, often an IC50 or EC50 that approximates it; ≥ and ≤ were set here for values at or beyond the usual limits of such assays
HLA-A*26:01 = test: as above
HLA-A*69:01 [8] = test: as above
HLA-B*27:03 = test: as above
HLA-B*39:01 = test: as above
HLA-A*31:01 [9] = test: as above
HLA-A*02:03 = test: IEDB peptide-MHC binding, purified MHC/direct/fluorescence; filed as Kd, often an IC50 or EC50 that approximates it; ≥ and ≤ were set here for values at or beyond the usual limits of such assays; details: source organism: Entamoeba histolytica HM-1:IMSS
HLA-A*02:11 = test: as above
HLA-A*02:12 = test: as above
HLA-A*02:19 = test: as above
HLA-A*68:02 [10] = test: as above; details: source organism: Entamoeba histolytica HM-1:IMSS
HLA-B*15:17 = test: IEDB peptide-MHC binding, purified MHC/competitive/fluorescence; filed as Kd, often an IC50 or EC50 that approximates it; ≥ and ≤ were set here for values at or beyond the usual limits of such assays; details: source organism: Entamoeba dispar SAW760
HLA-B*18:01 [11] = test: as above; details: source organism: Entamoeba dispar SAW760
HLA-B*46:01 [12] = test: as above; details: source organism: Entamoeba dispar SAW760
HLA-B*51:01 = test: as above; details: source organism: Entamoeba dispar SAW760
HLA-B*57:01 [13] = test: as above; details: source organism: Entamoeba dispar SAW760
HLA-A*02:01 [14] = test: IEDB peptide-MHC binding, purified MHC/direct/fluorescence; filed as Kd, often an IC50 or EC50 that approximates it; ≥ and ≤ were set here for values at or beyond the usual limits of such assays; details: source organism: Amur virus
HLA-A*69:01 [15] = test: as above; details: source organism: Amur virus
HLA-A*68:02 [16] = test: IEDB peptide-MHC binding, purified MHC/competitive/fluorescence; filed as Kd, often an IC50 or EC50 that approximates it; ≥ and ≤ were set here for values at or beyond the usual limits of such assays; details: source organism: Salmonella enterica subsp. enterica serovar Typhi
HLA-A*02:01 [17] = test: IEDB peptide-MHC binding, purified MHC/competitive/fluorescence; ≥ and ≤ were set here for values at or beyond the usual limits of such assays; details: source organism: Zaire ebolavirus
HLA-A*11:01 [18] = test: as above; details: source organism: Zaire ebolavirus
HLA-A*24:02 = test: as above; details: source organism: Zaire ebolavirus
HLA-B*15:01 [19] = test: as above; details: source organism: Zaire ebolavirus
[20] = source organism: Reston ebolavirus - Reston
[21] = source organism: Reston ebolavirus - Reston (1989)
[22] = source organism: Bacillus anthracis
[23] = source organism: Entamoeba histolytica HM-1:IMSS
[24] = source organism: Entamoeba dispar SAW760

QLSLRMLSL
pKd (HLA-A*01:01): ≤ 4.70 | pKd (HLA-A*03:01; [20]): ≤ 4.70 | pKd (HLA-A*11:01 [1]; [20]): ≤ 4.70 | pKd (HLA-A*29:02): ≤ 4.70 | pKd (HLA-A*31:01 [2]): ≤ 4.70 | pKd (HLA-B*08:01): 6.07 | pKd (HLA-B*15:01 [3]): ≤ 4.70 | pKd (HLA-B*18:01 [4]): ≤ 4.70 | pKd (HLA-B*27:05): ≤ 4.70 | pKd (HLA-B*44:02): ≤ 4.70 | pKd (HLA-B*46:01 [5]): ≤ 4.70 | pKd (HLA-B*48:01): ≤ 4.70 | pKd (HLA-B*57:01 [6]): ≤ 4.70 | pKd (HLA-B*58:01): ≤ 4.70 | pKd (HLA-A*02:01 [7]; [21]): ≤ 4.70 | pKd (HLA-A*26:01; [21]): ≤ 4.70 | pKd (HLA-A*69:01 [8]; [21]): ≤ 4.70 | pKd (HLA-B*27:03; [21]): ≤ 4.70 | pKd (HLA-B*39:01; [21]): ≤ 4.70

RTHLGFIFQ
pKd (HLA-A*03:01; [22]): ≤ 4.70 | pKd (HLA-A*11:01 [1]; [22]): ≤ 4.70 | pKd (HLA-A*31:01 [9]; source organism: Bacillus thuringiensis str. Al Hakam): ≤ 4.70

STYQFSLMQ
pKd (HLA-A*02:03): ≤ 4.70 | pKd (HLA-A*02:11; [23]): ≤ 4.70 | pKd (HLA-A*02:12; [23]): ≤ 4.70 | pKd (HLA-A*02:19; [23]): ≤ 4.70 | pKd (HLA-A*03:01; [23]): ≤ 4.70 | pKd (HLA-A*11:01 [1]; [23]): ≤ 4.70 | pKd (HLA-A*68:02 [10]): ≤ 4.70 | pKd (HLA-A*02:01 [7]; [24]): ≤ 4.70 | pKd (HLA-A*26:01; [24]): ≤ 4.70 | pKd (HLA-A*69:01 [8]; [24]): ≤ 4.70 | pKd (HLA-B*15:17): ≤ 4.70 | pKd (HLA-B*18:01 [11]): ≤ 4.70 | pKd (HLA-B*27:03; [24]): ≤ 4.70 | pKd (HLA-B*39:01; [24]): ≤ 4.70 | pKd (HLA-B*46:01 [12]): ≤ 4.70 | pKd (HLA-B*51:01): ≤ 4.70 | pKd (HLA-B*57:01 [13]): ≤ 4.70

TLTRGQNTV
pKd (HLA-A*02:01 [14]): 7.40 | pKd (HLA-A*02:11; source organism: Amur virus): ≤ 4.70 | pKd (HLA-A*02:12; source organism: Amur virus): 7.24 | pKd (HLA-A*02:19; source organism: Amur virus): 6.86 | pKd (HLA-A*69:01 [15]): ≤ 4.70

VSAAGTTLR
pKd (HLA-A*03:01; source organism: Mycobacterium tuberculosis): ≤ 4.70 | pKd (HLA-A*31:01 [9]; source organism: Mycobacterium tuberculosis H37Rv): 6.46

WVVDQNGRV
pKd (HLA-A*68:02 [16]): 7.75

YQGDYKLFL
pIC50 (HLA-A*02:01 [17]): 6.22 | pIC50 (HLA-A*11:01 [18]): 4.22 | pIC50 (HLA-A*24:02): 6.04 | pIC50 (HLA-B*15:01 [19]): 4.97
